Measurements from patent publication US20040121957A1.

Target: ΔNEG2-CFTR (CFTR with amino acids 817-838 deleted) (human), P13569
Experiment: cell-based or functional assay

ΔNEG2-CFTR (CFTR with amino acids 817-838 deleted) (human), P13569, sequence (P13569 other isoform, or with tags, fused parts or gaps mutant): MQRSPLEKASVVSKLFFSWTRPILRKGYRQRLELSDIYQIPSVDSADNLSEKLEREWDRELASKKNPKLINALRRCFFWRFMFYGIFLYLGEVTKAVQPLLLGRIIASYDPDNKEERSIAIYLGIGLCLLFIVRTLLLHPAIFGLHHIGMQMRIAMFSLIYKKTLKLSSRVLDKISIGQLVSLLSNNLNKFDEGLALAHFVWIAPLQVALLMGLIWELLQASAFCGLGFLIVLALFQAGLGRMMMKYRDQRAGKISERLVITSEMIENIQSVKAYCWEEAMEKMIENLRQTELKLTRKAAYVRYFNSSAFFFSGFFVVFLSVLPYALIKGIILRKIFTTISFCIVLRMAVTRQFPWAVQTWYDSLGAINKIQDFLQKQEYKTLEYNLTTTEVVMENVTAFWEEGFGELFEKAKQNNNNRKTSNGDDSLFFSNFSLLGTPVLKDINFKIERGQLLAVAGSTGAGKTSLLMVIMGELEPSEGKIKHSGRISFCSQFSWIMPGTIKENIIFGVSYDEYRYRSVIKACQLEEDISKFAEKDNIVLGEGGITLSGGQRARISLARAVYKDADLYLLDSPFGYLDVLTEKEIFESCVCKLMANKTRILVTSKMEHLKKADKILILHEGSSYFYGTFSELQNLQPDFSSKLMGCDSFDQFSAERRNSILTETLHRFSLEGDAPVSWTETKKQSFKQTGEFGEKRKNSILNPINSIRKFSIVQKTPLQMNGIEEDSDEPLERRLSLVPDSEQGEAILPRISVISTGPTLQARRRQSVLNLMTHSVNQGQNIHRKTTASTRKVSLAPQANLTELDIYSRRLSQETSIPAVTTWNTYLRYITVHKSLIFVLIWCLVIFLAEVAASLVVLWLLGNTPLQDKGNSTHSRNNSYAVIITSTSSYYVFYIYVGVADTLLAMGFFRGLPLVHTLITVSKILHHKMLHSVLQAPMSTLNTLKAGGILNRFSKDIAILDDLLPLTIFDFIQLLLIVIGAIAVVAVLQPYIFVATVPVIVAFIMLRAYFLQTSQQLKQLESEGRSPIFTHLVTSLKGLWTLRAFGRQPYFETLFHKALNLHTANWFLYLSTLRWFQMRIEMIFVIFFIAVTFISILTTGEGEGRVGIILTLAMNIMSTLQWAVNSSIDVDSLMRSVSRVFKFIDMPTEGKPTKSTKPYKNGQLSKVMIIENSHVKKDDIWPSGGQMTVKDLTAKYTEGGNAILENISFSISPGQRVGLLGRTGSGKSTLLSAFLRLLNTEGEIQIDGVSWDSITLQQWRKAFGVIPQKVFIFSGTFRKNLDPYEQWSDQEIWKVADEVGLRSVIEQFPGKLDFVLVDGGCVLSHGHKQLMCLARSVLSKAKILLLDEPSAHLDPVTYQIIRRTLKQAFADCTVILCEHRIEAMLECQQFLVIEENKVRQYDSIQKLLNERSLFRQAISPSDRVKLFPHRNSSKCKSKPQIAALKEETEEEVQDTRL

stimulation of single channel (peptide concentration): 0.44 µM
Binder: GLEISEEINEEDLKECFFDDME [synthetic NEG2 peptide (22 amino acid peptide corresponding to CFTR amino acids 817-838)]
